Source: patent US20200024348A1 (Alector, published 2020)

T1: human Sortilin (SORT1), full-length untagged, expressed on cells (human, UniProt Q99523 78-831)
T1 sequence: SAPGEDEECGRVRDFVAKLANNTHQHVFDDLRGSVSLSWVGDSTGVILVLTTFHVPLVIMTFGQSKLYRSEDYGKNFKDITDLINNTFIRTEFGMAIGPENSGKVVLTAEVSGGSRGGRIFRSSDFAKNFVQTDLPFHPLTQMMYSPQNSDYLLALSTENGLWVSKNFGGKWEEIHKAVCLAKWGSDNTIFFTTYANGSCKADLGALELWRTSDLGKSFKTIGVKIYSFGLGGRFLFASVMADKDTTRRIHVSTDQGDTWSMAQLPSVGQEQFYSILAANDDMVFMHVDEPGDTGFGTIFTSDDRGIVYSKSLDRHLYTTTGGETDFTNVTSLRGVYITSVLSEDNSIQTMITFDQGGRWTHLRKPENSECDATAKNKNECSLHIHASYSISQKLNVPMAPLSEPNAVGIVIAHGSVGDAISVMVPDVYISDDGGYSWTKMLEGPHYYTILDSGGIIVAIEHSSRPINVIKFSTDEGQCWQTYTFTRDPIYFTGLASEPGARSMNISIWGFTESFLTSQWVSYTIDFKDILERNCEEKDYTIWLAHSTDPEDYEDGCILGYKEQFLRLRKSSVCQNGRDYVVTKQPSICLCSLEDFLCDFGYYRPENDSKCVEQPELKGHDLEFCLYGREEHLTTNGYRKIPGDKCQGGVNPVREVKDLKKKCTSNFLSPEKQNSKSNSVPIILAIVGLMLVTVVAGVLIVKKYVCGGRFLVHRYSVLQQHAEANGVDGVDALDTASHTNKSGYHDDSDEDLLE

T2: histidine-tagged human SORT1 (R&D Systems) (human, UniProt Q99523 78-755)
T2 construct: Bought recombinant protein; also called His-tagged human SORT1; not shown: histidine tag
T2 sequence: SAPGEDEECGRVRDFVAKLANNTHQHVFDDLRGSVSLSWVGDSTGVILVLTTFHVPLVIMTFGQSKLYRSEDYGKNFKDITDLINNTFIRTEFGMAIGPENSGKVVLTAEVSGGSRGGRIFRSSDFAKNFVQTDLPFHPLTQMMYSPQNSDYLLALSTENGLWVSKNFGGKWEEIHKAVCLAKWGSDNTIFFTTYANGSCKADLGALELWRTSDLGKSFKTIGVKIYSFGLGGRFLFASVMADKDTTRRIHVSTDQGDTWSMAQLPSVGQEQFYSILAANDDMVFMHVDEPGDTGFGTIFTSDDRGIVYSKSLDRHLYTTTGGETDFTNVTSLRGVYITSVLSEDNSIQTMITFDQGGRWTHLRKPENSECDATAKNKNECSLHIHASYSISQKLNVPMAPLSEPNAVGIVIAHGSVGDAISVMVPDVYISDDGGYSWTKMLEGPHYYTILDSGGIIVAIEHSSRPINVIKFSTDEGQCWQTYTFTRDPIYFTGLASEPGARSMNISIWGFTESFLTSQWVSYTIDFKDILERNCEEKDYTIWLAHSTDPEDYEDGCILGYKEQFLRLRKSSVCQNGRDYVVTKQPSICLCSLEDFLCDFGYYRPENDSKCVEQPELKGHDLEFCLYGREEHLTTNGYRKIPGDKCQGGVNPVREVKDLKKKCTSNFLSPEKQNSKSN


Experiments:
[1] = molecular target: T1, human Sortilin (SORT1), full-length …; assay: cell-based or functional assay
[2] = molecular target: T1, human Sortilin (SORT1), full-length …; assay: FACS on HEK293T cells expressing human SORT1, huIgG1
Description: For the binding assay, stable HEK293T cells expressing human SORT1 were harvested by trypsinization, washed in PBS, counted and plated on 96-well u-bottom plates at 1×10⁵ cells/well. The plates were spun at 1,400 rpm for 3 minutes and primary anti-SORT1 or control antibodies were added in FACS buffer (PBS+2 FBS) and incubated on ice for one hour. Cells were subsequently centrifuged as before and washed thrice with FACS buffer. Cells were then incubated with anti-human APC conjugated secondary antibody (BD Biosciences) in FACS buffer for 30 minutes on ice. Cells were again washed three times with FACS buffer and analyzed on a BD FACS Canto or an Intellicyt Flow Cytometer. Binding was measured as median fluorescent intensity (MFI) in the […] channel of the GFP positive cell population.
All antibodies were tested on the huIgG1 backbone.

[3] = molecular target: T1, human Sortilin (SORT1), full-length …; assay: cell-based or functional assay; remark: listed apart in the source
[4] = molecular target: T1, human Sortilin (SORT1), full-length …; assay: cell-based or functional assay; remark: listed apart in the source
[5] = molecular target: T2, histidine-tagged human SORT1 (R&D …); assay: BLI (Octet RED96), antibody captured on anti-human IgG Fc sensor, 20 nM His-tagged human SORT1, 1:1 fit
Description: The G1m3 or G1m(f) allotype with L234A/L235A/P331S (“LALAPS” motif) mutations was used as a background (Jefferis R and Lefranc M-P, Mabs, 2009 July-August; 1(4): 332-338). […] Bio-layer interferometry (BLI) data was collected at a rate of 5 Hz at 25° C. on a Pall ForteBio Octet RED96 instrument. Data analysis was performed using ForteBio Data Analysis Software, version 9.0. Standard kinetic buffer (PBS, 0.1 BSA, 0.02 Tween-20, pH 7.2) was used for the assay and for preparing reagents. For all assays, sensor tips were equilibrated in buffer prior to analysis.
Twenty nM histidine-tagged human SORT1 (R&D Systems, Minneapolis, Minn.) was then bound to the captured anti-SORT1 surface (200 s association time, 1200 s dissociation time). […] Full, local fitting using a 1:1 interaction model was applied to extract association and dissociation rate constants (kₐ and kd, respectively) for each N33 mutant. Affinity constants (KD) were calculated from the ratio […]. Different amino acid substitutions were made at N33 and tested for binding to SORT1 in an off-rate screen (under non-stress conditions) as shown in Table 9.

Binder | DR EC50 (M): down-regulation of cell surface SORT1, U251 cells, FACS [1] [M] | DR at 0.6 nM antibody (IgG): percent SORT1 downregulation, U251 cells [1] [%] | Kd [2] [nM] | also measured
S-60-1 (antibody, IgG1, V domains shown, Tested on the huIgG1 (WT) backbone) VH: QVQLQESGPGLVKPSETLSLTCAVSGYSISSVRYWGWIRQPPGKGLEWIGSIYHSGSTYYNPSLKSRVTISVDTSKNQFSLKLSSVTAADTAVYYCARQGSIKQGYYGMDVWGQGTTVTVSS VL: not shown | 2.73e-10 | 50.4 | 7.22 | 
S-60-15.16 [N33M] (antibody, human IgG1, kappa, L234A L235A, V domains shown, huIgG1 LALAPS) VH: QVQLQESGPGLVKPSETLSLTCAVSGYSISSGYYWGWIRQPPGKGLEWIGTIYHSGSTYYNPSLKSRVTISVDTSKNQFSLKLSSVTAADTAVYYCARQGSIKQGYYGMDVWGQGTTVTVSS VL: DIVMTQSPLSLPVTPGEPASISCRSSQSLLRSMGYNYLDWYLQKPGQSPQLLIYLGSNRASGVPDRFSGSGSGTDFTLKISRAEAEDVGVYYCMQQQEAPLTFGGGTKVEIKR |  |  |  | Kd [5]: 0.85 nM; koff [5]: 0.000423 s⁻¹; kon [5]: 495000 M⁻¹ s⁻¹
S-60-2 (antibody, IgG1, V domains shown, Tested on the huIgG1 (WT) backbone) VH: QVQLQESGPGLVKPSETLSLTCAVSGYSISSVRYWGWIRQPPGKGLEWIGAIYPSGSTYYNPSLKSRVTISVDTSKNQFSLKLSSVTAADTAVYYCARQGSIKQGYYGMDVWGQGTTVTVSS VL: not shown | 4.2e-10 | 40.3 | 11 | 
S-60-12 (antibody, IgG1, V domains shown, Tested on the huIgG1 (WT) backbone) VH: QVQLQESGPGLVKPSETLSLTCAVSGYSISSGYYWGWIRQPPGKGLEWIGTIYHSGSTYYNPSLKSQVTISVDTSKNQFSLELSSVTAADTAVYYCARQGSIQQGYYGMDVWGQGTTVTVSS VL: DIVMTQSPLSLPVTPGEPASISCRSSQSLLRSNGYNYLDWYLQKPGQPPQLLIYLGSNRVSGVPDRFSGSGSGTDFTLKISRVEAEDVGVYYCMQQQETPLTFGGGTKVEIK |  |  | 0.89 | DR at 0.63 nM antibody (IgG): percent SORT1 downregulation, U251 cells [4]: 87.4%
S-60-15.17 [N33L] (antibody, human IgG1, kappa, L234A L235A, V domains shown, huIgG1 LALAPS) VH: QVQLQESGPGLVKPSETLSLTCAVSGYSISSGYYWGWIRQPPGKGLEWIGTIYHSGSTYYNPSLKSRVTISVDTSKNQFSLKLSSVTAADTAVYYCARQGSIKQGYYGMDVWGQGTTVTVSS VL: DIVMTQSPLSLPVTPGEPASISCRSSQSLLRSLGYNYLDWYLQKPGQSPQLLIYLGSNRASGVPDRFSGSGSGTDFTLKISRAEAEDVGVYYCMQQQEAPLTFGGGTKVEIKR |  |  |  | Kd [5]: 1.03 nM; koff [5]: 0.000425 s⁻¹; kon [5]: 412000 M⁻¹ s⁻¹
S-60-18 (antibody, IgG1, V domains shown, Tested on the huIgG1 (WT) backbone) VH: QVQLQESGPGLVKPSETLSLTCAVSGYSISSGYYWGWIRQPPGKGLEWIGTIYHSGSTYYNPSLKSRVTISVDTSKNQFSLKLSSVTAADTAVYYCARQGSIKQGYYGMDVWGQGTTVTVSS VL: DIVMTQSPLSLPVTPGGPASISCRSSQSLLRSNGYNYLDWYLQKPGQSPQLLIYLGSNRASGVPDRLSGSGSGTDFTLKISRVEAEDVGVYYCMQQQETPLTFGGGTKVEIK |  |  | 1.63 | DR at 1.25 nM antibody (IgG): percent SORT1 downregulation, U251 cells [3]: 51.3%
S-60-19 (antibody, IgG1, V domains shown, Tested on the huIgG1 (WT) backbone) VH: QVQLQESGPGLVKPSETLSLTCAVSGYSISSGYYWGWIRQPPGKGLEWIGTIYHSGSTYYNPSLKSQVTISVDTSKNQFSLELSSVTAADTAVYYCARQGSIQQGYYGMDVWGQGTTVTVSS VL: not shown |  |  | 0.8 | DR at 1.25 nM antibody (IgG): percent SORT1 downregulation, U251 cells [3]: 55.5%

Further lines, with some results ahead:

DR EC50 (M): down-regulation of cell surface SORT1, U251 cells, FACS [1] [M] | DR at 0.6 nM antibody (IgG): percent SORT1 downregulation, U251 cells [1] [%] | Kd [2] [nM] | Binder | also measured
 |  | 0.56 | S-60-15 (antibody, IgG1, V domains shown) VH: QVQLQESGPGLVKPSETLSLTCAVSGYSISSGYYWGWIRQPPGKGLEWIGTIYHSGSTYYNPSLKSRVTISVDTSKNQFSLKLSSVTAADTAVYYCARQGSIKQGYYGMDVWGQGTTVTVSS VL: not shown | DR at 1.25 nM antibody (IgG): percent SORT1 downregulation, U251 cells [3]: 60.9%
 |  | 0.78 | S-60-16 (antibody, IgG1, V domains shown, Tested on the huIgG1 (WT) backbone) VH: QVQLQESGPGLVKPSETLSLTCAVSGYSISSGYYWGWIRQPPGKGLEWIGTIYHSGSTYYNPSLKSRVTISVDTSKNQFSLKLSSVTAADTAVYYCARQGSIKQGYYGMDVWGQGTTVTVSS VL: not shown | DR at 1.25 nM antibody (IgG): percent SORT1 downregulation, U251 cells [3]: 70.1%
 |  | 0.65 | S-60-10 (antibody, IgG1, V domains shown, Tested on the huIgG1 (WT) backbone) VH: QVQLQESGPGLVKPSETLSLTCAVSGYSISSGYYWGWIRQPPGKGLEWIGTIYHSGSTYYNPSLKSQVTISVDTSKNQFSLELSSVTAADTAVYYCARQGSIQQGYYGMDVWGQGTTVTVSS VL: not shown | DR at 0.63 nM antibody (IgG): percent SORT1 downregulation, U251 cells [4]: 85.4%
4.18e-10 | 39.6 | 0.634 | S-60-4 (antibody, IgG1, V domains shown, Tested on the huIgG1 (WT) backbone) VH: QVQLQESGPGLVKPSETLSLTCAVSGYSISSGYYWGWIRQPPGKGLEWIGTIYHSGSTYYNPSLKSRVTISVDTSKNQFSLKLSSVTAADTAVYYCARQGSIKQGYYGMDVWGQGTTVTVSS VL: DIVMTQSPLSLPVTPGESASISCRSSQGLLRSNGYNYLDWYLQKPGQSPQLLIYLGSNRASGVPDRFSGSGSGTDFTLKISRVEAEDVGVYYCMQQQETPLTFGGGTKVEIK | 
5.76e-10 | 32 | 0.468 | S-60-8 (antibody, IgG1, V domains shown, Tested on the huIgG1 (WT) backbone) VH: QVQLQESGPGLVKPSETLSLTCAVSGYSISSGYYWGWIRQPPGKGLEWIGTIYHSGSTYYNPSLKSRVTISVDTSKNQFSLKLSSVTAADTAVYYCARQGSIKQGYYGMDVWGQGTTVTVSS VL: not shown | 
4.47e-10 | 32.6 | 0.787 | S-60-7 (antibody, IgG1, V domains shown, Tested on the huIgG1 (WT) backbone; also called S-60-5; S-60-6) VH: QVQLQESGPGLVKPSETLSLTCAVSGYSISSGYYWGWIRQPPGKGLEWIGTIYHSGSTYYNPSLKSRVTISVDTSKNQFSLKLSSVTAADTAVYYCARQGSIKQGYYGMDVWGQGTTVTVSS VL: not shown | 
 |  | 0.65 | S-60-11 (antibody, IgG1, V domains shown, Tested on the huIgG1 (WT) backbone) VH: QVQLQESGPGLVKPSETLSLTCAVSGYSISSGYYWGWIRQPPGKGLEWIGTIYHSGSTYYNPSLKSQVTISVDTSKNQFSLELSSVTAADTAVYYCARQGSIQQGYYGMDVWGQGTTVTVSS VL: not shown | DR at 0.63 nM antibody (IgG): percent SORT1 downregulation, U251 cells [4]: 88.8%
